Test results reported in the DeepSol protein solubility set.

test: soluble on expression in E. coli; label from the status in PepcDB or PDB records

Sequence | soluble on expression in E. coli
MDTPRPQLLDFQFHQNNDSFTLHFQQRLILTHNKDNPCLWIGSGIADIDMFRGNFSIKDKLQEKIALTDAIVSQSPDGWLIHFSRGSDISATLNISADDQGRLLLELQNDNLNHNRIWLRLAAQPEDHIYGCGEQFSYFDLRGKPFPLWTSEQGVGRNKQTYVTWQADCKENAGGDYYWTFFPQPTFVSTQKYYCHVDNSCYMNFDFSAPEYHELALWEDKATLRFECADTYISLLEKLTALLGRQPELPDWIYDGVTLGIQGGTEVCQKKLDTMRNAGVKVNGIWAQDWSGIRITSFGKRVMWNWKWNSENYPQLDSRIKQWYQEGVQFLAYINPYVASDKDLCEEAAQHGYLAKDASGGDYLVEFGEFYGGVVDLTNPEAYAWFKEVIKKNMIELGCGGWMADFGEYLPTDTYLHNGVSAEIMHNAWPALWAKCNYEALEETGKLGEILFFMRAGSTGSQKYSTMMWAGDQNVDWSLDDGLASVVPAALSLAMTGHGLHHSDIGGYTTLFEMKRSKELLLRWCDFSAFTPMMRTHEGNRPGDNWQFDGDAETIAHFARMTTVFTTLKPYLKEAVALNAKSGLPVMRPLFLHYEDDAHTYSLKYQYLLGRDILVAPVHEEGRSDWTLYLPEDNWVHAWTGEAFRGGEVTVNAPIGKPPVFYRADSEWAALFASLNSI | not soluble
MDVDLASVEVVFAQKLACGEPATRQRALRVLHDWIRDQSAKKHFDDADLMRLCKGLHYVMWMQDKMILQEELADRIGGLINIFTSEEEKVRFVACFLKSLSKEWPHIDRWRMDKFLMEVRRMVRACFTHLAELKWKKDIRDEYWKVFQETTISTDKSFNEALKFHFASILLDELDAAGGLTKKQVTACLKPYIELLGNKDISEYLFTSLYEEIFKTILQQKSDLITAVEEGEEMDQGGIEFSYKEIGALLFEVGKQEHLNAKRRKKIYDLVKKFDKSSRGQDPLHFETPVPKERLTRHDYEEAEKKAIVLANSFKQERKSSRKVKSQIKKRAREAAEAARQENGDDVPDDEIAEVKKGNGKKTAVPKVKKGRPLLKAKGVGKKRMVGGLKRKAGKKN | not soluble
MDVRELAIQQLKTVLDPELGINVVDLGLIYDLKIEDGHINVLMTLTTPGCPLHDSIAGGVKRALEQIDGVRDVRVQVTWNPPWTPERMSEEALRQLGHFS | not soluble
MDVSDSIDWSKMTLQKISVRIEGHATSVSLEQPFLDILKTIARKKGQSLAFIITDIDSKRPQQVNLSSSLRIYALQSVLIQRL | not soluble
MDWGTELWDQFEVLERHTQWGLDLLDRYVKFVKERTEVEQAYAKQLRSLVKKYLPKRPAKDDPESKFSQQQSFVQILQEVNDFAGQRELVAENLSVRVCLELTKYSQEMKQERKMHFQEGRRAQQQLENGFKQLENSKRKFERDCREAEKAAQTAERLDQDINATKADVEKAKQQAHLRSHMAEESKNEYAAQLQRFNRDQAHFYFSQMPQIFDKLQDMDERRATRLGAGYGLLSEAELEVVPIIAKCLEGMKVAANAVDPKNDSHVLIELHKSGFARPGDVEFEDFSQPMNRAPSDSSLGTPSDGRPELRGPGRSRTKRWPFGKKNKTVVTEDFSHLPPEQQRKRLQQQLEERSRELQKEVGQREALKKMKDVYEKTPQMGDSASLEPQIAETLSNIERLKLEVQKYEAWLAEAESRVLSNRGDSLSRHARPPDPPASAPPDSSSNSASQDTKESSEEPPSEESQDTPIYTEFDEDFEEEPTSPIGHCVAIYHFEGSSEGTISMAEGEDLSLMEEDKGDGWTRVRRKEGGEGYVPTSYLRVTLN | soluble
